From patent publication US20250320281A1 come the findings set out here.

A value given as a limit tells only on which side of the number the result lay.

What all share (test): cell-based or functional assay
Assay [1] concerns the target HIV-1 92UG024 envelope glycoprotein (Env) on pseudovirus (HIV-1).
Assay [2] deals with HIV-1 Env of isolate 98CN006 (CRF08 BC) (HIV-1 isolate 98CN006).
In assay [3] the target is HIV-1 Env of isolate 98CN009 (CRF07 BC) (HIV-1 isolate 98CN009).
The target in assay [4] is HIV-1 Env of isolate CAAN.A2 (Acute), clade B, on pseudovirus (HIV-1).
Assay [5] has as its target HIV-1 Env of isolate LAVIC_18 (HIV-1).
The target of assay [6] is HIV-1 Env of isolate LAVI_C22 (HIV-1).
The target in assay [7] is HIV-1 Env of isolate MGRM-D-016 (clade D pseudovirus) (HIV-1).
The target of assay [8] is HIV-1 Env of isolate MGRM-D-021 (clade D pseudovirus) (HIV-1).
The target in assay [9] is HIV-1 Env of isolate MGRM-D-022 (clade D pseudovirus) (HIV-1).
For assay [10], the target named is HIV-1 Env of pseudovirus MGRM-AE-001 (clade CRF01_AE) (HIV-1).
Assay [11] has as its target HIV-1 Env of pseudovirus MGRM-AG-001 (clade CRF_AG) (HIV-1).
The target of assay [12] is HIV-1 Env of pseudovirus MGRM-AG-005 (clade CRF_AG) (HIV-1).
The target in assay [13] is HIV-1 Env of pseudovirus MGRM-AG-011 (clade CRF_AG) (HIV-1).
Assay [14] deals with HIV-1 Env of pseudovirus MGRM-Chronic-B-024 (HIV-1).
In assay [15] the target is HIV-1 IAVI-C18 envelope glycoprotein (Env) on pseudovirus (HIV-1).
The target in assay [16] is HIV-1 envelope glycoprotein (Env) of isolate 92RW008, clade A (HIV-1).
The target of assay [17] is HIV-1 envelope glycoprotein (Env) of isolate MGRM-A-003, clade A (HIV-1).
Assay [18] addresses HIV-1 envelope glycoprotein (Env) of isolate MGRM-A-008, clade A (HIV-1).
Assay [19] concerns the target HIV-1 envelope glycoprotein (Env) of isolate MGRM-A-010, clade A (HIV-1).
Assay [20] has as its target HIV-1 envelope glycoprotein (Env) of isolate MGRM-A-013, clade A (HIV-1).

As usually defined, the IC50 is the midpoint of a concentration-inhibition curve. b12 (antibody): the IC50, pseudovirus neutralization was 49.1 µg/mL in assay [1] and greater than 50 µg/mL in [15]. Also, the IC50 (µg/ml), pseudovirus neutralization in assay [2] is greater than 50 µg/mL; in [3], 1.52 µg/mL; in [4], greater than 50 µg/mL; in assay [7], 1.12 µg/mL; in assay [8] it was 5.23 µg/mL; in assay [9], 17.6 µg/mL. For the same substance, the IC50 (µg/ml), pseudovirus neutralization in assay [14] is greater than 50 µg/mL; in assay [16], 9.46 µg/mL; in assay [17], greater than 50 µg/mL; in [18] it was greater than 50 µg/mL; in assay [19] it was greater than 50 µg/mL; in assay [20], 7.04 µg/mL. In addition, the IC50 in [5] was greater than 50 µg/mL; in [6] it was 7.64 µg/mL; in assay [10], 25.9 µg/mL; in assay [11], 11.9 µg/mL; in assay [12], greater than 50 µg/mL; in assay [13], greater than 50 µg/mL.
